Results as given in article PMC12468279, “VEGF-VEGFR Signaling Mechanism Directs the Migration of Newborn Hemocytes from the Hematopoietic Site of Oyster Crassostrea gigas” (Cells, 2025).

Target: T1, recombinant PDGF domain of CgVEGF with a GST tag (rCgVEGF) (Crassostrea gigas, biotin (biotinylated; site not stated))
T1 chain: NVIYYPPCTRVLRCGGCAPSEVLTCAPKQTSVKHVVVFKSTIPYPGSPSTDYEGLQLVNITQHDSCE
Test: BLI; Octet K2 (ForteBio); biotinylated rCgVEGF immobilised on streptavidin biosensors; rCgVEGFR in solution at 1150, 1125, 843.75, 632.81 and 474.61 ug/mL; global fit to a 1:1 binding model; rTrx as control analyte
Settings: both partners purified

Kd: 879 nM
B1: recombinant extracellular domain of CgVEGFR with a Trx tag (rCgVEGFR) (domain or fragment)
chain: QLVVVEETDCLKRPCRNGGSCDDIDGDGNFTCGCLPQWSGHFCELDTNECLNPPCEHGGTCTNSHGGYFCACTEIWTGKNCEEFKRVTIVDPKPTMEIYPERERVDSENGSIYTSSGDIVLNSGENFTIECFGDYPIKLTFKSDRVAEAPDYLGMDIIRRPIANMSQNARAFGVIYLVSNPTYKYTGEYVCQYTENSLHTSKYIYIRDEDNLFLEKNKYPGVPIFKNSYLFEPLILPCHVSDPEADVKLLTNWGTEVQLPDSPITYDPKTGFLIEFPSYSFVGPFRCAASVNNGMMQTISYYVTFNVEYKPSPTLLPLGDLEIVLGEDFELRCQVTVPLSVQSVSIQWMYSSNENNVSLPISALMIAPGQRSDRVRFTRPVEDTSMASDKSKTYFSNLTVMNGMKMDQGRYTCNVTTGRSQSTAVSKNVILVGDGLLEIQQCKKGQEIADFRGNWTVITQEQQIGVQISCLIKSMPYPKVTWYFKGEELNFKNSTVSQRYNPTMLNTTRTLTNISLSIMLPGKEQVGLYEIIVEAGTKREYAHFQLVYQYKPVVLIPAINKDVPYLLPNTRYNVRALVSAVPPATSQGWLWQPCGELPSCKQNSNSWRNVTSDNYQRFNQSGHLKYYATNSKGTGEYVMKIKVAEYETGLGIHIDQEKPSIIQTFPLHVTCTATKWEYSNVKVVFWGETDSYWRDVNIQNGTTLLSHNTSLSWISELRIENFAPENVGLYGCEVDISSNSSKGHLSTGDALRVQMISLEKPVFTKNTLTDSVVETNMGHSYHVMDCSARGVPAPSIQWFKDGQLLNFTSEFLGLSLSDDNTSLTINKTDVVHSGIYVCEVENMNGVIYKNVTLQIKSSLQSQKLKTKVEKGT
